For the assay, the target named is ccnd1_human CCND1 (UniProt P24385).

The results in this text go back to IntAct's records for PubMed 16431923.

Chain of ccnd1_human CCND1 (P24385 whole entry): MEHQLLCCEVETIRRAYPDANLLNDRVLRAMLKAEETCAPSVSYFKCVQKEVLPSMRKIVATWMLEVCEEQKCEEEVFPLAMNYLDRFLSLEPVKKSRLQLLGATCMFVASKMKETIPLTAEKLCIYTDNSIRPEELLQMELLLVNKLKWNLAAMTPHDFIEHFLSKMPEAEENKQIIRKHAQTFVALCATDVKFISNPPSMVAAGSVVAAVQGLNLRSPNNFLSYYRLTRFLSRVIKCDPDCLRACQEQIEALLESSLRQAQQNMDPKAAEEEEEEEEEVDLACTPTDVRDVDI

“Nucleoprotein (Human SARS coronavirus), P59595 S207A;P208A;A209L;R210G”: the “effect of a mutation on the interaction” value is on record as “decreasing interaction strength”.
